Experimental data as given in patent US20050176632A1 (published 2005).

Columns and labels:
[1] = target: human type ZAQ (G protein-conjugated receptor protein ZAQ) expressed on CHO cells (ZAQC-B1 cells) (human, UniProt Q8TCW9 1-393); experiment: cell-based or functional assay
[2] = target: human type I5E receptor expressed on CHO cells (I5E-4 cells) (human, UniProt Q8NFJ6 1-384); experiment: cell-based or functional assay
Sequence of human type I5E receptor expressed on CHO cells (I5E-4 cells) (Q8NFJ6 whole entry): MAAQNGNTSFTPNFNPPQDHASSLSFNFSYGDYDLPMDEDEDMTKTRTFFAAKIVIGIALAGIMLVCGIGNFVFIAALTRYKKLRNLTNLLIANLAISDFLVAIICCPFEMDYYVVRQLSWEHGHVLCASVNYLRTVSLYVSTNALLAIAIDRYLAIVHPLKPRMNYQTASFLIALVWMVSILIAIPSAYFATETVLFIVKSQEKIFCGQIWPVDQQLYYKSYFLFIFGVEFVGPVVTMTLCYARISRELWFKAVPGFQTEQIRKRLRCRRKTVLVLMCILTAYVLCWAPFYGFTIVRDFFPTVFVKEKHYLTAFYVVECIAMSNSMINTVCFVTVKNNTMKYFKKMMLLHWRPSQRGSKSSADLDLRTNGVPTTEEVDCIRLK

Sequence of human type ZAQ (G protein-conjugated receptor protein ZAQ) expressed on CHO cells (ZAQC-B1 cells) (Q8TCW9 whole entry): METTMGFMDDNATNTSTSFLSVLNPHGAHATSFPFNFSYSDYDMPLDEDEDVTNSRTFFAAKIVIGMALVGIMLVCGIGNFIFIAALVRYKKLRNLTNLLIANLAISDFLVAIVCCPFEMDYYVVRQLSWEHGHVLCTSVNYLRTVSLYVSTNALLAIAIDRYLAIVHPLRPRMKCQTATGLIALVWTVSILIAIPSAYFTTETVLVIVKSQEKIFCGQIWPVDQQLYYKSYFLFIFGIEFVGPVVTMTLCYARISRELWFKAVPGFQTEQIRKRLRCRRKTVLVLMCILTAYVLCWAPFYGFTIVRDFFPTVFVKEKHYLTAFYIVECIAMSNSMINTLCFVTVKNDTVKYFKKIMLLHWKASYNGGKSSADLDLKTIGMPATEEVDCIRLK

Binder | action to activate a ZAQ receptor, relative to the human type ZAQ ligand peptide (FLIPR) [1] | action to activate a human type I5E receptor, relative to the human type ZAQ ligand peptide (FLIPR) [2] | action to activate an I5E receptor, relative to the human type Bv8 peptide (FLIPR) [2] | EC50 of the increase of intracellular calcium concentration in ZAQ expression CHO cells (ZAQC-B1 cells), FLIPR [1] [nM]
snake venom MIT1 (ligand) AVITGACERDLQCGKGTCCAVSLWIKSVRVCTPVGTSGEDCHPASHKIPFSGQRMHHTCPCAPNLACVQTSPKKFKCLSK | 10 times greater than the human type ZAQ ligand peptide | ~100 times greater than the human type ZAQ ligand peptide | 10 times greater than the human type Bv8 peptide | 
human type ZAQ ligand mature peptide (type G, 86 amino acid residues) (ligand) AVITGACERDVQCGAGTCCAISLWLRGLRMCTPLGREGEECHPGSHKVPFFRKRKHHTCPCLPNLLCSRFPDGRYRCSMDLKNINF |  |  |  | 0.096
